The record followed here is the DeepSol protein solubility set.

This data set can be described thus: soluble on expression in E. coli; label from the status in PepcDB or PDB records.
Turning to “MGSDKIHHHHHHMEIGIAASVSELDGVQWDALSDGSPLLSHAFLSALEHSGSVGEGTGWQPMPLTVRRDGKLIGAVPLYLKHHSYGEYVFDWSWAGAYTQHGGEYYPKLVAAVPFTPITGSRLLSHDPMLQAHMAEVLRDTVQRLQLSSAHVLFPDEQSAEVLSGQGWLRRQGVQFRWHNQGFASFDEFLMTLTHDKRKKIRQERRKVDAAGVICRRLLGAEIGEREWDFFYKCYVNTYLEHRSSPYLTQAFFHELGERLPGNVMLVLAERDGRRIGAALNLYDTDCLYGRYWGALAYVPNLHFELCYYQAQLFCIERGIRFFEGGAQGEHKLARGFVARETCSFHHIAHPDFEAAIRHFVSREAVGVSHYQQELDERAPYRKPG”, the “soluble on expression in E. coli” value is listed as “not soluble”.

For “MSLYLFGESDHYLWLPRGLLYPLQDKFKQVSVEDRRKVQRSISVEFKGELTFEQELALSDMTSKENGLLHAETGFGKTVLGAALISERKTKTIILVHNKQLLDQWLDRLNCFLTFEEEEAIRYTASGREKVIGYVGQYGGTKKWLSKLVDVVMIQSLFKLENSQSLLDEYEMMIVDECHHVSALMFEKVVAQFRGKYLYGLTATPERKNGHEPIVFQRIGEILHTADKREGHHHHHH”, the “soluble on expression in E. coli” value was “not soluble”. “MSQSRHRAEAPPLEREDSGTFSLGKMITAKPGKTPIQVLHEYGMKTKNIPVYECERSDVQIHVPTFTFRVTVGDITCTGEGTSKKLAKHRAAEAAINILKANASICFAVPDPLMPDPSKQPKNQLNPIGSLQELAIHHGWRLPEYTLSQEGGPAHKREYTTICRLESFMETGKGASKKQAKRNAAEKFLAKFSNISPENHISLTNVVGHSLGCTWHSLRNSPGEKINLLKRSLLSIPNTDYIQLLSEIAKEQGFNITYLDIDELSANGQYQCLAELSTSPITVCHGSGISCGNAQSDAAHNALQYLKIIAERK”: the “soluble on expression in E. coli” value was “soluble”. Under “MGSDKIHHHHHHMSSRAFSTVAVTDAFFTLVAPVAKNSARIVIIVNSVSTGKNHPQMVALQQTVQQLGYAHVQLLDVLTDDLAALNTATVIILNGGYEFLLLKNLRETHVLERLRTLALAGKPIYGISAGAILLGPDLDLYVYLYPEDNTEQLASTTAINATTIRIYPHYDVHCEVKPQLPQLITDWEHKTGVTVKRLTNNQGLLVHGSQIQMIDSDS” stands “not soluble”; under “MGDEYMDDDEDYGFEYEDDSGSEPDVDMENQYYTAKGLRSDGKLDEAIKSFEKVLELEGEKGEWGFKALKQMIKITFGQNRLEKMLEYYRQLLTYIKSAVTKNYSEKSINAILDYISTSRQMDLLQHFYETTLDALKDAKNERLWFKTNTKLGKLFFDLHEFTKLEKIVKQLKVSCKNEQGEEDQRKGTQLLEIYALEIQMYTEQKNNKALKWVYELATQAIHTKSAIPHPLILGTIRECGGKMHLRDGRFLDAHTDFFEAFKNYDESGSPRRTTCLKYLVLANMLIKSDINPFDSQEAKPFKNEPEIVAMTQMVQAYQDNDIQAFEQIMAAHQDSIMADPFIREHTEELMNNIRTQVLLRLIRPYTNVRISYLSQKLKVSQKEVIHLLVDAILDDGLEAKINEESGMIEMPKNKKKMMVTSLVVPNAGDQGTTKSDSKPGTSSEPSTTTSVTSSILQGPPATSSCHQELSMDGLRVWAERIDSIQSNIGTRIKF”, “not soluble”; under “MVSTYDEIEIEDMTFEPENQMFTYPCPCGDRFQIYLDDMFEGEKVAVCPSCSLMIDVVFDKEDLAEYYEEAGIHPPEPIAAAA”, “soluble”. “MNLDDIESLSEQIARHIGEQIITGELVEGERIQELRIAKELDVSRGSVREALLLLERTHLIEIFPRRGAIVSEMSSQQVKALFDSSVLVLGHIVQKISESWRVHEAEQLQHLIEQLNEHVKAGDTEKFYDGIFEYLAQQHDMVMNAYLMKFYKELLPSLRRSYFLTLNTSRRELQEALALFKLVTDAILIRKSHQATLFMEDFCRHLRNLVLESLTRMKQIELAWARRSRRSSNR”: the “soluble on expression in E. coli” value was “not soluble”. Take “MGSDKIHHHHHHMDWEDAPLPYKLYRNVPIIPLSLEIPLSLPNSSTTPTLNEIGHYLWCSFGLTQLCQLNSEKILFRRSIPSGGALYPNELYIYLKIDDYPDGIYHYDAAHHRLILIREGNFDSYLTEALGNRCNLQSCFGAAFVSTMFWKNFFKYNNFSYRLQGLDSGVLIGQLLECAKQFGYTNGVYFQFLDRAINHLLGLSEGEESVYAVLPFSTEPQTNWFHNDYREIKTVTSHELLQQIPPLAHEHFVRSKHVNEYPMITKINEASMIESTAQFQTLAHEEHFQHHAHAVQLPKVERLSYDFLQLCRKRYSPDADFILTKWDAAELATLLQEASLSFPYYNDLDGQYVNENARVSLYGCFYNVKDIENGAYSYNSKTHSIQPLRYGDLRYPLQSSMTMDNVNLFQVPLCLHVVGKKDYYTNALGYRGYRIHQMEAGILVHKLVFAATAMGMAGHPLLSFDTNSCDQLYGIEAGNETSLIQIPVGAYRARNWLKGALRN”: the “soluble on expression in E. coli” value was “not soluble”.

Take “MTPPEERQMLRETVASLVAKHAGPAAVRAAMASDRGYDESLWRLLCEQVGAAALVIPEELGGAGGELADAAIVVQELGRALVPSPLLGTTLAELALLAAAKPDAQALTELAQGSAIGALVLDPDYVVNGDIADIVVAATSGQLTRWTRFSAQPVATMDPTRRLARLQSEETEPLCPDPGIADTAAILLAAEQIGAAERCLQLTVEYAKSRVQFGRPIGSFQALKHRMADLYVTIAAARAVVADACHAPTPTNAATARLAASEALSTAAAEGIQLHGGIAITWEHDMHLYFKRAHGSAQLLESPREVLRRLESEVWESP”: the “soluble on expression in E. coli” value is listed as “not soluble”. For “MGLPKSAYKKLLIDCPTRVINKNCAQRVKDVSPLITNFEKWSDKRKKLYFKDEEEMVGQFHLENFNLKNNLYGRLLASPMRAEKISKLKSCRELLIPLKVVPSTGKDQHADKDKLKLVPTLDYSKSYKSSYVLNSASIVQDNLAAATSWFPISVLQTSTPKSLEVDSSTFITEYNANLHAFIKARLSVIPNVGPSSINRVLLICDKRKTPPIEIQVVSHGKGLPITQSVFNLGYLHEPTLEAIVSKDAVTNGIYLDADNDKDLIKHLYSTLLFHSVN”, the “soluble on expression in E. coli” value was “not soluble”. As for “MKDPLLNSLIYVSRYYGLANSPEALVNGLPLSDGKLTPFLLPRAAERAGLVAKENRAELEKISSLILPAILVLKGGDSCVLNSINMETREAEVTTLESGMVPISIPLEDLLEQYTGRYFLVKKQFR”, the entry is “soluble”; as for “MTQPSAPAPQIAIDSHDDKAWRDTLLKVAAILCERQPDSPQGYRLRRHALWQSITSTPQAESDGRTPLAAVSADMVADYQSRLASADMALWQQVEKSVLLAPYWLDGHCLSAQTALRLGYKQVADTIRDEVIRFLERLPQLTGLLFNDRTPFLSEQTKQWLAASPDGKVAPVAQIGEESQAARACFAGQGLEAALRYLDMLPEGDPRDQFHRQYLAAQLTEEAGLIQLAQQQYRMLLMIGSQMMVSDWEPSLLTQLEQKFTAEQ”, “soluble”; as for “MGSDKIHHHHHHMLKRLLDYNDGEEMDIVVLIKNSQLRRNKKDKLFLAMQFGDGSGEIRGNYWDASHQDAATFSTGTIVELNGKREEYQGRPQIRIYSLRVVGPQEGYSLDEFIKSAPETTNDMKGEIDDFVKQIQNRTWRSIVEYLLKKWDKRFFDYPAGKSNHHALRGGLAYHTLAMLKDARGLADNYEQINRSLLYAGCILHDMGKVQELTGPAATQYTIEGNLVGHLVLIDEQIMLAAQDLKIDLESEDLLLLRHMVLSHHGKFEYGSPKLPALLEAEILHRIDDLDAMVYAVTNALQHTGKGTFTEPLQSQDGKRYYRPKNDPELDQAKNLE”, “not soluble”. As for “MAHHHHHHMNEKGNFMKKAYKNNNIQLSENQINQRIKNVNLTKRLICYERYLKAIPKIERRNDLKNSWHPETPRYNKQISLSQWNKELKKWRKQIHAWGNISEEDHRYICKLSYTDKYKYLCNLKMPELSNLEIKNMKKENEEISHDILKHILLIQNKHNNPFDENDKIMYQPIFFLPENFSGTVVHNEFVIIKEQNMEKYLTLLKDKYKDKYNYCFKKYYELYLLNKDSDNKNVENSKNTIPKNGKNHIVIYLGKETKPLNYKNKEAQYEQKEKMEAYNFLCGSTKKYENHNKMNKRKKF”, the entry is “not soluble”; as for “AMAKGVGVSNEKLDAVMRVVSEESGIALEELTDDSNFADMGIDSLSSMVIGSRFREDLGLDLGPEFSLFIDCTTVRALKDFMLGSGDAG”, “soluble”; as for “KTHFVIQLKEDSQLMDEVVVVGFGTQKKINLTGAVTAVNIQETLGDRPITNVTAALQGVVPGLKIEGTTGTPGDNLSYNIRGTTSINGGGPLVLVNNVPMDINMIDPQDIESVSVLKDAASAAIYGARAAFGVILITTKQGKKDM”, “not soluble”.
